Positions count from the first letter of the chain named. Numbers in names are those of the source.
Tests used:
[1] = molecular target: FANCJ-R707C with a C-terminal FLAG tag (human) (UniProt Q9BX63)
[2] = molecular target: T1, FANCJ-wild type (WT) with a C-terminal FLAG tag (human), Q9BX63; test: SEC; purified recombinant FANCJ applied to a Superdex-200 column on an AKTA FPLC, UV detection, calibrated with molecular mass markers; dimer and monomer peaks; conditions: remark: other sources report otherwise
T1 chain: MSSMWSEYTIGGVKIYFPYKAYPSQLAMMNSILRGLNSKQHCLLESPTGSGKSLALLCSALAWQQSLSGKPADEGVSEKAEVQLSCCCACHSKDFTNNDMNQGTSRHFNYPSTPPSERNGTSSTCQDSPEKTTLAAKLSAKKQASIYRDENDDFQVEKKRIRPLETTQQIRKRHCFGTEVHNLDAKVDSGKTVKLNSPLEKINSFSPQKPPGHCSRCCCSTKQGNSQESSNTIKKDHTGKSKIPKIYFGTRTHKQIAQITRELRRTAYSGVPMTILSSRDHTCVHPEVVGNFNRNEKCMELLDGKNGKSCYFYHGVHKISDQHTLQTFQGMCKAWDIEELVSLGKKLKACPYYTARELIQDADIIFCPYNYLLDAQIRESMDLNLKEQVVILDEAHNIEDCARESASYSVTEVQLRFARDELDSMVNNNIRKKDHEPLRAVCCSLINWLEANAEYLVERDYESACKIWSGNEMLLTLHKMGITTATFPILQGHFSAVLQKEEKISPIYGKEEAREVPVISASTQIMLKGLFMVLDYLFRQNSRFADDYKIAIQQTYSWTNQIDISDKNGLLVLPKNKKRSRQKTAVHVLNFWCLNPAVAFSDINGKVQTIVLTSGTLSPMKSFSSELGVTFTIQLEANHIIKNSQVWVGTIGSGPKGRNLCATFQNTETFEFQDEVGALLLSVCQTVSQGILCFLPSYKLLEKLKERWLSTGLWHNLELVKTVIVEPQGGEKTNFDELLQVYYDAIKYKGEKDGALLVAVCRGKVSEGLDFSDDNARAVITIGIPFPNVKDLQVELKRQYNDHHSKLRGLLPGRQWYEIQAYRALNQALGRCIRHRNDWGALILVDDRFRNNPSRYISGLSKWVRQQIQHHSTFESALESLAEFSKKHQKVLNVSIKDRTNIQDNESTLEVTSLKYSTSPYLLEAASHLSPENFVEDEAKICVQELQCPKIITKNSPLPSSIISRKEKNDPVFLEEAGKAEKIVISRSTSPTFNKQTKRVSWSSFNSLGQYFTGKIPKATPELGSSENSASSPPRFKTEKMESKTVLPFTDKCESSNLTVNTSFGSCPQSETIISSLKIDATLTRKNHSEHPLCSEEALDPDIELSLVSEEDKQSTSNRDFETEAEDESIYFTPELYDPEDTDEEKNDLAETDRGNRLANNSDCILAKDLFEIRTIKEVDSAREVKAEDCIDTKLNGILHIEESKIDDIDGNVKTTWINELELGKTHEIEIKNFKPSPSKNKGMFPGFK

[3] = molecular target: the molecule itself; test: as above
FANCJ-WT = molecular target: T2, FANCJ-WT (Homo sapiens, UniProt Q9BX63 1-1249); test: EMSA; 5 mM Mg2+, no ATP; EMSA: 40 mM Tris-HCl pH 7.4, 25 mM KCl, 5 mM MgCl2, 2 mM DTT, 2% glycerol, 100 ng/ul BSA, no ATP, 0.5 nM DNA, 24 C 30 min; native 5% PAGE in 1x TBE at 4 C
T2 sequence: T1 chain

RPA (complex) was tested, and the percent of 34 bp forked duplex DNA substrate (0.5 nM) unwound by FANCJ-R707C (20 nM) with increasing RPA, up to 8 nM, 30°C, 15 min (stimulation of helicase activity by RPA) [1] was 45%.

B1: FANCJ-wild type (WT) with a C-terminal FLAG tag, Q9BX63 1-1249 (enzyme)
chain: T1 chain
In the case of B1, the stoichiometry N [2] is reported as 2.

B2: FANCJ-H396D with a C-terminal FLAG tag (enzyme, human, UniProt Q9BX63 1-1249, looked up)
chain: T1 chain with H396D
With B2 the “stoichiometry N” value [3] was 2.

TTTTTTTTTTTTTTTTTTTTTTCCCAGTAAAACGACGGCCAGTGC (ssDNA) [single-stranded 45-mer (DC26)]: binds (FANCJ-WT).

From PMC6159516 (Nucleic Acids Research, 2018)
